Measurements from PMC3374333 (Nature neuroscience, 2012).

Biological target: the molecule itself
Assay: SEC

B1: GBR1bVFT (Venus Flytrap module of the extracellular domain of human GABAB receptor subunit GBR1b) (domain or fragment, UniProt Q9UBS5-2 30-459, looked up)
chain: SHSPHLPRPHSRVPPHPSSERRAVYIGALFPMSGGWPGGQACQPAVEMALEDVNSRRDILPDYELKLIHHDSKCDPGQATKYLYELLYNDPIKIILMPGCSSVSTLVAEAARMWNLIVLSYGSSSPALSNRQRFPTFFRTHPSATLHNPTRVKLFEKWGWKKIATIQQTTEVFTSTLDDLEERVKEAGIEITFRQSFFSDPAVPVKNLKRQDARIIVGLFYETEARKVFCEVYKERLFGKKYVWFLIGWYADNWFKIYDPSINCTVDEMTEAVEGHITTEIVMLNPANTRSISNMTSQEFVEKLTKRLKRHPEETGGFQEAPLAYDAIWALALALNKTSGGGGRSGVRLEDFNYNNQTITDQIYRAMNSSSFEGVSGHVVFDASGSRMAWTLIEQLQGGSYKKIGYYDSTKDDLSWSKTDKWIGGSPPAD
  stoichiometry N: 2
